# T1: N-terminus of rat macro-H2A peptide
# T1 chain: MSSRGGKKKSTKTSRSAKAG
# T2: mutated H3 (K9L) N-terminal peptide
# T2 chain: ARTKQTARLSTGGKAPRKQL
# T3: N-terminus of human CENP-A peptide
# T3 chain: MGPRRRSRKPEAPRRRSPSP
# B1: murine GST-Suv39h1 product comprising aa 7-221 (protein)
# chain: GCSVCCKSSWNQLQDLCRLAKLSCPALGVSKKNLYDFEVEYLCDYKKIREQEYYLVKWRGYPDSENTWEPRQNLKCIRVLKQFHKDLERELVRRHRRSKPPRHLDPNLANYLVQKAKQRRALQRWEQELNAKRSHLGRITVENEVDLDGPPRSFVYINEYRVGEGITLNQVAVGCECQDCLLAPTGGCCPGASLHKFAYNDQGQVRLKAGQPIYE
# B2: triple myc-tagged C-terminally truncated SUV39H1 protein (aa 3-118) (protein)
# chain: ENLKGCSVCCKSSWNQLQDLCRLAKLSCPALGISKRNLYDFEVEYLCDYKKIREQEYYLVKWRGYPDSESTWEPRQNLKCVRILKQFHKDLERELLRRHHRSKTPRHLDPSLANYL
# B3: murine GST-Suv39h1(aa 82-412) (protein)
# chain: CIRVLKQFHKDLERELVRRHRRSKPPRHLDPNLANYLVQKAKQRRALQRWEQELNAKRSHLGRITVENEVDLDGPPRSFVYINEYRVGEGITLNQVAVGCECQDCLLAPTGGCCPGASLHKFAYNDQGQVRLKAGQPIYECNSRCCCGYDCPNRVVQKGIRYDLCIFRTNDGRGWGVRTLEKIRKNSFVMEYVGEIITSEEAERRGQIYDRQGATYLFDLDYVEDVYTVDAAYYGNISHFVNHSCDPNLQVYNVFIDNLDERLPRIAFFATRTIWAGEELTFDYNMQVDPVDMESTRMDSNFGLAGLPGSPKKRVRIECKCGTTACRKYLF
# B4: triple myc-tagged full-length human SUV39H1 (aa 3-412) (protein)
# chain: ENLKGCSVCCKSSWNQLQDLCRLAKLSCPALGISKRNLYDFEVEYLCDYKKIREQEYYLVKWRGYPDSESTWEPRQNLKCVRILKQFHKDLERELLRRHHRSKTPRHLDPSLANYLVQKAKQRRALRRWEQELNAKRSHLGRITVENEVDLDGPPRAFVYINEYRVGEGITLNQVAVGCECQDCLWAPTGGCCPGASLHKFAYNDQGQVRLRAGLPIYECNSRCRCGYDCPNRVVQKGIRYDLCIFRTDDGRGWGVRTLEKIRKNSFVMEYVGEIITSEEAERRGQIYDRQGATYLFDLDYVEDVYTVDAAYYGNISHFVNHSCDPNLQVYNVFIDNLDERLPRIAFFATRTIRAGEELTFDYNMQVDPVDMESTRMDSNFGLAGLPGSPKKRVRIECKCGTESCRKYLF
# Tests used:
# [1] = molecular target: T1, N-terminus of rat macro-H2A peptide
# [2] = molecular target: T2, mutated H3 (K9L) N-terminal peptide
# [3] = molecular target: T3, N-terminus of human CENP-A peptide
# [4] = molecular target: wild-type N-terminus of human histone H3 peptide (aa 1-20)
protein,measurement,setting,value
B1,"in vitro HMTase activity (free histones, fluorography)",histone H3,"proved negative, even at higher protein concentrations"
B2,"in vitro HMTase activity (transfer of 14C-methyl label to free histones, fluorography)",histone H3,no signals were detected with extracts from a HeLa cell line that expresses only the N-terminal third of SUV39H1 (aa 3-118)
B3,"in vitro methylation of N-terminal peptides (SDS-PAGE, fluorography)",[1],"no signals were detected with the CENP-A or macroH2A peptides, or with insulin"
same,in vitro methylation of individual histones (fluorography),histone H4,"no signals are detected with H2A, H2B or H4"
same,"in vitro methylation of N-terminal peptides (SDS-PAGE, fluorography)",insulin,"no signals were detected with the CENP-A or macroH2A peptides, or with insulin"
same,in vitro methylation of individual histones (fluorography),histone H1,A weak signal is present if H1 was used as the sole substrate
same,in vitro methylation of individual histones (fluorography),histone H2A,"no signals are detected with H2A, H2B or H4"
same,"in vitro methylation of N-terminal peptides (SDS-PAGE, fluorography)",[2],the mutated H3 (K9L) peptide was not a substrate
same,"in vitro methylation of N-terminal peptides (SDS-PAGE, fluorography)",[3],"no signals were detected with the CENP-A or macroH2A peptides, or with insulin"
same,in vitro methylation of individual histones (fluorography),histone H2B,"no signals are detected with H2A, H2B or H4"
same,"in vitro HMTase activity (free histones, fluorography)",histone H3,maintained HMTase activity (although at a reduced level as compared to transfected SUV39H1)
same,in vitro methylation of individual histones (fluorography),histone H3,H3 is specifically methylated by GST-Suv39h1(aa 82-412)
same,"3H-incorporation of individual amino acids (microsequencing of the in vitro methylated peptide, scintillation counting)",[4],The results confirmed selective transfer of methyl-label to lysine 9
same,"in vitro methylation of N-terminal peptides (SDS-PAGE, fluorography)",[4],selective methylation of the wild-type H3 peptide
B4,"in vitro HMTase activity (transfer of 14C-methyl label to free histones, fluorography)",histone H3,indicating selective transfer of the methyl-label to H3
